Experimental findings from the supplement of paper PMC5998384 are described below.

The test system of series [1] is HeLa Kyoto. Briefly: solubility in G1/S (NP-40 vs SDS abundance) (log2 ratio); higher = more soluble. The following applies: cell cycle stage: G1/S.
The test system of series [2] is HeLa Kyoto. Briefly: thermal stability score vs G1/S (z-score of summed log2 fold changes over temperatures); higher = more thermally stable than in G1/S.
In series [3] the test system is HeLa Kyoto. Briefly: solubility change mitosis vs G1/S (difference of NP-40 vs SDS log2 ratios) (log2 ratio difference); higher = more soluble in mitosis.
Series [4] has as its system HeLa Kyoto. The series can be described thus: melting temperature (median over replicates), in situ; higher = more thermally stable.
The mark [5] stands for this setting: cell cycle stage: early G1 (4.5 h after nocodazole release).
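Wherever melting temperature (median over replicates), in situ is given: HeLa Kyoto cells synchronized by double thymidine or nocodazole block, proteins quantified by TMT10plex mass spectrometry, three independent biological replicates.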
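Wherever solubility change mitosis vs G1/S (difference of NP-40 vs SDS log2 ratios) is given: synchronized HeLa Kyoto cells (double thymidine block for G1/S, nocodazole release for mitosis), protein amounts in NP-40 versus SDS lysates quantified by mass spectrometry, three biological replicates.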
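Wherever solubility in G1/S (NP-40 vs SDS abundance) is given: HeLa Kyoto cells arrested at G1/S by double thymidine block, proteins quantified by TMT10plex mass spectrometry in mild NP-40 versus SDS extracts, three biological replicates.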
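Wherever thermal stability score vs G1/S (z-score of summed log2 fold changes over temperatures) is given: synchronized HeLa Kyoto cells, proteins quantified by TMT10plex mass spectrometry, three biological replicates, mitosis taken 0.5 h after nocodazole release, G1/S directly after double thymidine block.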

Take “MHSRGREIVVLLNPWSINEAVSSYCTYFIKQDSKSFGIMVSWKGIYFILTLFWGSFFGSIFMLSPFLPLMFVNPSWYRWINNRLVATWLTLPVALLETMFGVKVIITGDAFVPGERSVIIMNHRTRMDWMFLWNCLMRYSYLRLEKICLKASLKGVPGFGWAMQAAAYIFIHRKWKDDKSHFEDMIDYFCDIHEPLQLLIFPEGTDLTENSKSRSNAFAEKNGLQKYEYVLHPRTTGFTFVVDRLREGKNLDAVHDITVAYPHNIPQSEKHLLQGDFPREIHFHVHRYPIDTLPTSKEDLQLWCHKRWEEKEERLRSFYQGEKNFYFTGQSVIPPCKSELRVLVVKLLSILYWTLFSPAMCLLIYLYSLVKWYFIITIVIFVLQERIFGGLEIIELACYRLLHKQPHLNSKKNE [LCLAT1]”: the “solubility in G1/S (log2)” value in series [1] is -0.201. Besides, the thermal stability score in series [2] (setting [5]) is -2.01; in series [2] (cell cycle stage: mitosis), -2.82. For the same substance, the “solubility change mitosis (log2)” value in series [3] was -0.165. Further, the melting temperature was found to be 55.1 °C in series [4] (cell cycle stage: G1/S) and 54.7 °C in series [4] (cell cycle stage: mitosis).

On to “MTTSHMNGHVTEESDSEVKNVDLASPEEHQKHREMAVDCPGDLGTRMMPIRRSAQLERIRQQQEDMRRRREEEGKKQELDLNSSMRLKKLAQIPPKTGIDNPMFDTEEGIVLESPHYAVKILEIEDLFSSLKHIQHTLVDSQSQEDISLLLQLVQNKDFQNAFKIHNAITVHMNKASPPFPLISNAQDLAQEVQTVLKPVHHKEGQELTALLNTPHIQALLLAHDKVAEQEMQLEPITDERVYESIGQYGGETVKIVRIEKARDIPLGATVRNEMDSVIISRIVKGGAAEKSGLLHEGDEVLEINGIEIRGKDVNEVFDLLSDMHGTLTFVLIPSQQIKPPPAKETVIHVKAHFDYDPSDDPYVPCRELGLSFQKGDILHVISQEDPNWWQAYREGDEDNQPLAGLVPGKSFQQQREAMKQTIEEDKEPEKSGKLWCAKKNKKKRKKVLYNANKNDDYDNEEILTYEEMSLYHQPANRKRPIILIGPQNCGQNELRQRLMNKEKDRFASAVPHTTRSRRDQEVAGRDYHFVSRQAFEADIAAGKFIEHGEFEKNLYGTSIDSVRQVINSGKICLLSLRTQSLKTLRNSDLKPYIIFIAPPSQERLRALLAKEGKNPKPEELREIIEKTREMEQNNGHYFDTAIVNSDLDKAYQELLRLINKLDTEPQWVPSTWLR [MPP5]”, for which, in series [1], the “solubility in G1/S (log2)” value is 0.0594. In addition, the thermal stability score was 0.62 in series [2] (setting [5]) and 2.56 in series [2] (cell cycle stage: mitosis). For the same substance, the “solubility change mitosis (log2)” value in series [3] was 0.00906. Further, the melting temperature in series [4] (cell cycle stage: G1/S) was 48 °C; in series [4] (cell cycle stage: mitosis), 50.7 °C.

For the substance CLTCL1, the “solubility in G1/S (log2)” value in series [1] is -0.305. The values for the thermal stability score in series [2] (setting [5]) and in series [2] (cell cycle stage: mitosis) were 0.282 and 0.64, respectively. The “solubility change mitosis (log2)” value in series [3] was -0.0594. Moreover, the melting temperature in series [4] (cell cycle stage: G1/S) came out at 50.8 °C; in series [4] (cell cycle stage: mitosis), 49.8 °C.

As to RALGAPA1, in series [1], the “solubility in G1/S (log2)” value was -0.0986. Moreover, the results for the thermal stability score in series [2] (setting [5]) and in series [2] (cell cycle stage: mitosis) were -0.328 and -0.518, respectively. The “solubility change mitosis (log2)” value in series [3] is -0.16. The melting temperature in series [4] (cell cycle stage: G1/S) stood at 50.2 °C; in series [4] (cell cycle stage: mitosis), 50.8 °C.

Regarding “MSSKGSVVLAYSGGLDTSCILVWLKEQGYDVIAYLANIGQKEDFEEARKKALKLGAKKVFIEDVSREFVEEFIWPAIQSSALYEDRYLLGTSLARPCIARKQVEIAQREGAKYVSHGATGKGNDQVRFELSCYSLAPQIKVIAPWRMPEFYNRFKGRNDLMEYAKQHGIPIPVTPKNPWSMDENLMHISYEAGILENPKNQAPPGLYTKTQDPAKAPNTPDILEIEFKKGVPVKVTNVKDGTTHQTSLELFMYLNEVAGKHGVGRIDIVENRFIGMKSRGIYETPAGTILYHAHLDIEAFTMDREVRKIKQGLGLKFAELVYTGFWHSPECEFVRHCIAKSQERVEGKVQVSVLKGQVYILGRESPLSLYNEELVSMNVQGDYEPTDATGFININSLRLKEYHRLQSKVTAK [ASS1]”, in series [1], the “solubility in G1/S (log2)” value is 0.145. The thermal stability score is -0.511 in series [2] (setting [5]) and -0.833 in series [2] (cell cycle stage: mitosis). For the same substance, the “solubility change mitosis (log2)” value in series [3] is -0.0958. Moreover, the melting temperature in series [4] (cell cycle stage: G1/S) was determined as 54.3 °C; in series [4] (cell cycle stage: mitosis) it was 54.1 °C.

With “MASNDYTQQATQSYGAYPTQPGQGYSQQSSQPYGQQSYSGYSQSTDTSGYGQSSYSSYGQSQNTGYGTQSTPQGYGSTGGYGSSQSSQSSYGQQSSYPGYGQQPAPSSTSGSYGSSSQSSSYGQPQSGSYSQQPSYGGQQQSYGQQQSYNPPQGYGQQNQYNSSSGGGGGGGGGGNYGQDQSSMSSGGGSGGGYGNQDQSGGGGSGGYGQQDRGGRGRGGSGGGGGGGGGGYNRSSGGYEPRGRGGGRGGRGGMGGSDRGGFNKFGGPRDQGSRHDSEQDNSDNNTIFVQGLGENVTIESVADYFKQIGIIKTNKKTGQPMINLYTDRETGKLKGEATVSFDDPPSAKAAIDWFDGKEFSGNPIKVSFATRRADFNRGGGNGRGGRGRGGPMGRGGYGGGGSGGGGRGGFPSGGGGGGGQQRAGDWKCPNPTCENMNFSWRNECNQCKAPKPDGPGGGPGGSHMGGNYGDDRRGGRGGYDRGGYRGRGGDRGGFRGGRGGGDRGGFGPGKMDSRGEHRQDRRERPY [FUS]”, the “solubility in G1/S (log2)” value in series [1] was -0.295. The results for the thermal stability score in series [2] (setting [5]) and in series [2] (cell cycle stage: mitosis) were 0.878 and -3.18, respectively. For the same substance, in series [3], the “solubility change mitosis (log2)” value was determined as 0.333. The melting temperature in series [4] (cell cycle stage: G1/S) stood at 56.1 °C; in series [4] (cell cycle stage: mitosis) it was 54.8 °C.

Consider “MENHKSNNKENITIVDISRKINQLPEAERNLLENGSVYVGLNAALCGLIANSLFRRILNVTKARIAAGLPMAGIPFLTTDLTYRCFVSFPLNTGDLDCETCTITRSGLTGLVIGGLYPVFLAIPVNGGLAARYQSALLPHKGNILSYWIRTSKPVFRKMLFPILLQTMFSAYLGSEQYKLLIKALQLSEPGKEIH [TMEM126A]”, for which the “solubility in G1/S (log2)” value in series [1] was 0.245. Besides, the thermal stability score is -0.173 in series [2] (setting [5]) and -0.978 in series [2] (cell cycle stage: mitosis). In series [3], the “solubility change mitosis (log2)” value was -0.094. The melting temperature turned out to be 52.8 °C in series [4] (cell cycle stage: G1/S) and 52.4 °C in series [4] (cell cycle stage: mitosis).
